Experimental data from article doi:10.1101/2022.10.11.511805 (bioRxiv, 2022).

Assays:
[1] = target: T1, cleaved GP (GPCL): EBOV GP treated with thermolysin, glycan cap removed (Zaire ebolavirus, Mayinga-76, UniProt Q05320); assay: SEC
Target sequence in this assay (Q05320 33-501, chain 1 of 2): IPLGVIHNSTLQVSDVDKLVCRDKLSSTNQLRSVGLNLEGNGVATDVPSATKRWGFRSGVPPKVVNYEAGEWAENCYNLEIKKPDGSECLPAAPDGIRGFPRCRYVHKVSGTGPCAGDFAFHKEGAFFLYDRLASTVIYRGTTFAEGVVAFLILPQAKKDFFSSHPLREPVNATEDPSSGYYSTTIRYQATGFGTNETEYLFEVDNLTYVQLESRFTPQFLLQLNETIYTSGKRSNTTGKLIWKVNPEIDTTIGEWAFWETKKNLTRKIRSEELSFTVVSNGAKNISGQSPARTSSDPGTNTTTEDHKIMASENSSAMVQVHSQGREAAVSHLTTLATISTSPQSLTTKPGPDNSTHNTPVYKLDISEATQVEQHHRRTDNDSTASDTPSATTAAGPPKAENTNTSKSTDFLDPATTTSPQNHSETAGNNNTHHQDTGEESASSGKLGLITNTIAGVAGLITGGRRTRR
Target sequence in this assay (Q05320 33-650, chain 2 of 2): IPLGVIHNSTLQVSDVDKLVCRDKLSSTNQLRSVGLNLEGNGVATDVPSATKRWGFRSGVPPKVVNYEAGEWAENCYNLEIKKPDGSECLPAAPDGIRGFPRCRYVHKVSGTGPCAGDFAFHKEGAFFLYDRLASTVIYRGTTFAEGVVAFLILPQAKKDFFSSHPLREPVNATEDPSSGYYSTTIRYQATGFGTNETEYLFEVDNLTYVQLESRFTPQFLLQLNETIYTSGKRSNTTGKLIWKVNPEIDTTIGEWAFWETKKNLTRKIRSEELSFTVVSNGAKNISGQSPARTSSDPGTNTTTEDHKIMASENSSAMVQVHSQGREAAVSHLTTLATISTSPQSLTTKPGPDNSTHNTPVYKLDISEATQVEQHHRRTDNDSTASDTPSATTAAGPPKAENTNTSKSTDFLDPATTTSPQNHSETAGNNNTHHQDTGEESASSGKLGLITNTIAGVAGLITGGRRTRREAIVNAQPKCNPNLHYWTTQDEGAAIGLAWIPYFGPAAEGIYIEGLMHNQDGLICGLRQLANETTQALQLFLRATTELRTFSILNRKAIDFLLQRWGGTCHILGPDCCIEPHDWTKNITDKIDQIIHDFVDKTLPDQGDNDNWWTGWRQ

[2] = target: T1, cleaved GP (GPCL): EBOV GP treated with …; assay: SPR

Binder	binding result [1]	Kd [2]	fold reduction of the binding half-life relative to GP [2]
REGN3470 Fab (Fab, V domains shown) VH: QVQLVESGGGVVQPGRSLRLSCAASGFTFNNYGMHWVRQAPGMGLEWVAVIWHDGSDKYYADSVKGRFTISRDNSKNTLYLQMNSLRAEDTAVYYCARNWNLFDYWGQGTLVTVSS VL: DIQMTQSPSSLSASVGDRITITCRASQSISTYLHWYQQKPGKAPKLLIYAASTLQSGVPSRFSGSGSGTDFTLTISSLQPEDFATYYCQQSFSTPPINFGQGTKLEIK	no binding	–	–
REGN3471 (odesivimab) (antibody, V domains shown) VH: EVQLVESGGGLVQPGGSLRLSCAASGFTFSSYDMHWVRQATGKGLEWVSAIGTAGDTYYPGSVKGRFTISRENAKNSLYLQMNSLRAGDTAVYYCARTWFGELYFDYWGQGTLVTVSS VL: not shown	–	15.8 nM	4 fold
REGN3479 (maftivimab) (antibody, V domains shown) VH: EVQLVESGGGLVQPGGSLRLSCAASGFTSSSYAMNWVRQAPGKGLEWVSTISGMGGSTYYADSVKGRFTISRDNSKNTLYLQMNSLRAEDTAVYYCAKRGYPHSFDIWGQGTMVTVSS VL: not shown	–	0.14 nM	–
